Experiment: GTF activity of strains (PAHBAH assay)
Assay type: biochemical
Conditions: enzyme expressed in B. subtilis host
Method: GTF activity of the strains was analyzed by PAHBAH assay in three separate experiments. Due to minor variations between the expeirments, Table 2 lists the activity of the truncated enzymes in the B. subtilis host along with the experiment in which the activity was measured. Most of the T1, T2, and T6 truncations decreased the activity of the enzymes, whereas the T4 and T5 C-terminal truncations retained similar activity relative to the respective N terminal-only truncations (NT). […] To identify specific amino acid residues within the catalytic domain that may be involved in producing the soluble α-glucan fiber, we analyzed the crystal structures (PDB Identifiers: 3AIB, 3AIC, and 3HZ3) of the catalytic domains of three glucosyltransferases to identify residues within 8 Angstroms of the bound ligand. 57 residues met that criterion. A motif was generated based on the corresponding 57 amino acids in GTF0459 and each of the identified homologs. The motif was then used to generate a consensus sequence to capture the variability in the catalytic domains of GTF0459 and the identified homologs. The consensus sequence is provided as SEQ ID NO: 153.

B1: GTF0974T5: T5 C-terminal truncation of GTF0974 glucosyltransferase, SEQ ID NO: 118, strain SG1317 (protein)
chain: INGKQYYVNSDGSVRKNFVFEQDGKSYYFDAETGALATKSQDEFSTEPIKATVDFSSGNQLYKNDDKSLDQLDTFITADAWYRPKSILKDGKTWTASTEADKRPLLMVWWPDKSTQVNYLNYMQNQGLGAGSFSTNSSQESLDQAAKAVQTKIEERIAREGNTNWLRTSIDQFIKTQPGWNSSTENSSYDHLQGGQLLFNNSKGDTGNRTSHANSDYRLLNRTPTNQTGTRKYFKDNSIGGLEFLLANDIDNSNPAVQAEQLNWLHFMMNIGSIMANDPTANFDGLRVDALDNVDADLLQIASDYFKAAYGVDKSEANAIKHLSYLEAWSANDPYYNKDTKGAQLPIDNALRNALTNLLMRDKNTRMQLGDMTAFINSSLNPRGANDKNGERMANYIFTRAHDTEAQTIIQRIIRDRINPNLFGYNFTRDEIKKAFEIYNEDIDKAHKTYASYNLPSVYALMLTNKDSVTRVYYGDLYREDGHYMAKKTPYFDAIDTLLRARIKYVAGGQDMEVKKVGNDGLLTSVRYGKGANNRTDLGTSETRTQGMGVIMTNNYDFRLGSNETVTMNMGRAHRNQLYRPLLLTTKDGIATYLNDSDVPKKLLKRTDWNGNLTFNANDVFGVENVQVSGYLGVWVPYGAKANQDARTQPSNRANSDGQVYKSSAALDSQVMYEAFSNFQAFADDQPELYMNRVLAKNTDLLKAWGITSVGLPPQYVSSKDGTFLDSTIDNGYAFDDRYDMALSQNNKYGSLEDLLNVLRALHKDGIQAIADWVPDQIYNLPGKEVVNATRVNGYGNHQVGYQIIDQAYVANTRTDGTDYQGKYGGAFLDELKAKYPSIFNRVQISNGKQLPTNEKITKWSAKYFNGTNILGRGINYVLRDDKTNQYFNTSANSQLLPTPLRDTGAITSTQVFQRRGQDVYFLRDNQAVKNEFVQDGNGNWYYFGGDGKMTKGAQNINNKDYYFFDNGIQLRNALRRASNGYTYYYGLDGAMVKNAFVDFDDKHKQ
modifications: T5 C-terminal truncation of GTF0974
Q: With B1 as the molecule, how does the “GTF activity of strains: Acitivity” value (Experiment Number 2) read?
A: 43.5 U/mL

Q: And the “GTF activity of strains: Acitivity” value (Experiment Number 3)?
A: 37.7 U/mL

B2: GTF0974NT: N terminal-only truncated GTF0974 from Streptococcus salivarius 57.I, SEQ ID NO: 110, strain SG1290 (protein)
chain: INGKQYYVNSDGSVRKNFVFEQDGKSYYFDAETGALATKSQDEFSTEPIKATVDFSSGNQLYKNDDKSLDQLDTFITADAWYRPKSILKDGKTWTASTEADKRPLLMVWWPDKSTQVNYLNYMQNQGLGAGSFSTNSSQESLDQAAKAVQTKIEERIAREGNTNWLRTSIDQFIKTQPGWNSSTENSSYDHLQGGQLLFNNSKGDTGNRTSHANSDYRLLNRTPTNQTGTRKYFKDNSIGGLEFLLANDIDNSNPAVQAEQLNWLHFMMNIGSIMANDPTANFDGLRVDALDNVDADLLQIASDYFKAAYGVDKSEANAIKHLSYLEAWSANDPYYNKDTKGAQLPIDNALRNALTNLLMRDKNTRMQLGDMTAFINSSLNPRGANDKNGERMANYIFTRAHDTEAQTIIQRIIRDRINPNLFGYNFTRDEIKKAFEIYNEDIDKAHKTYASYNLPSVYALMLTNKDSVTRVYYGDLYREDGHYMAKKTPYFDAIDTLLRARIKYVAGGQDMEVKKVGNDGLLTSVRYGKGANNRTDLGTSETRTQGMGVIMTNNYDFRLGSNETVTMNMGRAHRNQLYRPLLLTTKDGIATYLNDSDVPKKLLKRTDWNGNLTFNANDVFGVENVQVSGYLGVWVPYGAKANQDARTQPSNRANSDGQVYKSSAALDSQVMYEAFSNFQAFADDQPELYMNRVLAKNTDLLKAWGITSVGLPPQYVSSKDGTFLDSTIDNGYAFDDRYDMALSQNNKYGSLEDLLNVLRALHKDGIQAIADWVPDQIYNLPGKEVVNATRVNGYGNHQVGYQIIDQAYVANTRTDGTDYQGKYGGAFLDELKAKYPSIFNRVQISNGKQLPTNEKITKWSAKYFNGTNILGRGINYVLRDDKTNQYFNTSANSQLLPTPLRDTGAITSTQVFQRRGQDVYFLRDNQAVKNEFVQDGNGNWYYFGGDGKMTKGAQNINNKDYYFFDNGIQLRNALRRASNGYTYYYGLDGAMVKNAFVDFDDKHKQVRAFTTQGTMVVGNLHWSGHHFYFDRETGIQAKDRVVRTDDGKLHYYVAETGDMGRNVFATDSSTGKRYYFDADGNTVTGSRVIDGKTYYFNQDGSVGTAYSNRADSIIFENGKARYITPAGEIGRSIFVYNPETKAWNYFDKEGNRVTGRQYIDGHLYYFKEDGSQAKGEIIEENGVKYYYEPESGILASGRYLQVGDDQWMYFKQDGSLAIGQVRADHGYLKYFDKNGIQVKGKTVVEDGKTYYYDAHSGALVTSSFAEIAPNQWSYFNTDGQALKGKWTINGKEYYFDENGIQYKGKAIKVGSRYKYYDENDGQPVTNRFAQIEPNVWAYFGADGYAVTGEQVINGQHLYFDQSGRQVKGAYVTVNGQRRYYDANTGEYVPGR
modifications: Streptococcus salivarius 57.I
Q: With B2 as the molecule, how does the “GTF activity of strains: Acitivity” value (Experiment Number 1) read?
A: 43.7 U/mL

Q: What about the “GTF activity of strains: Acitivity” value (Experiment Number 2) of the same molecule?
A: 53 U/mL

Q: And the “GTF activity of strains: Acitivity” value (Experiment Number 3)?
A: 36.4 U/mL

B3: GTF4336T4: T4 C-terminal truncation of GTF4336, SEQ ID NO: 130, strain SG1318 (protein)
chain: INGKQYYVNSDGSVRKNFVFEQDGKSYYFDAETGALATKSQDEFSTEPIKATVDFSSGNQLYKNDDKSLDQLDTFITADAWYRPKSILKDGKTWTASTEADKRPLLMVWWPDKSTQVNYLNYMQNQGLGAGSFSTNSSQESLDQAAKAVQTKIEERIAREGNTNWLRTSIDQFIKTQPGWNSSTENSSYDHLQGGQLLFNNSKGDTGNRTSHANSDYRLLNRTPTNQTGTRKYFKDNSIGGLEFLLANDIDNSNPAVQAEQLNWLHFMMNIGSIMANDPTANFDGLRVDALDNVDADLLQIASDYFKAAYGVDKSEANAIKHLSYLEAWSANDPYYNKDTKGAQLPIDNALRNALTNLLMRDKNTRMQLGDMTAFINSSLNPRGANDKNGERMANYIFTRAHDTEAQTIIQRIIRDRINPNLFGYNFTRDEIKKAFEIYNEDIDKAHKTYASYNLPSVYALMLTNKDSVTRVYYGDLYREDGHYMAKKTPYFDAIDTLLRARIKYVAGGQDMEVKKVGNDGLLTSVRYGKGANNRTDLGTSETRTQGMGVIMTNNYDFRLGSNETVTMNMGRAHRNQLYRPLLLTTKDGIATYFNDSDVPKNLLKRTDWNGNLTFNANDVFGVENVQVSGYLGVWVPVGAKANQDARTQPSNRANSDGQVYKSSAALDSQVMYEAFSNFQAFADDQPELYMNRVLAKNTDLLKAWGVTSVGLPPQYVSSKDGTFLDSTIDNGYAFDDRYDMALSQNNKYGSLEDLLNVLRALHKDGIQAIADWVPDQIYNLPGKEVVNATRVNGYGYHQQGYQIVDQAYVANTRTDGTDYQGKYGGAFLDELKAKYPSIFNRVQISNGKQLPTNEKITKWSAKYFNGTNILGRGINYVLRDDKTNQYFNTSANSQLLPTPLRDTGAITSTQVFQRRGQDVYFLRDNQAVKNEFVQDGNGNWYYFGADGKMTKGAQTINKKDYYFFDNGIQLRNALRRANNGYTYYYGLDGAMVKNAFVDFDDKRK
modifications: T4 C-terminal truncation of GTF4336
Q: For B3, which “GTF activity of strains: Acitivity” value (Experiment Number 2) is on record?
A: 46.4 U/mL

Reference: US20180049457A1, “ENZYMATIC SYNTHESIS OF SOLUBLE GLUCAN FIBER” (E I DU PONT DE NEMOURS AND COMPANY, priority 2014, published 2018)
